Source: the supplement of paper PMC9170038

Test system: K4 kissing-loop RNA reporter
Assay: apparent KD of K4 kissing-loop reporter; higher = weaker reporter binding
Conditions: Eterna round: R107; input ligand: none
Protocol: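 RNA-MaP round R107: designed RNA switches with theophylline, tryptophan, arginine or FMN aptamers are transcribed on-chip within common flanks. They are titrated with a labelled K4 kissing-loop RNA reporter in RNA-MaP buffer (100 mM Tris pH 7.5, 80 mM KCl, 4 mM MgCl2), without ligand or with the indicated ligand. Median apparent KD per design.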
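Further: bound reporter read as fluorescence of individual clusters on recovered sequencing chips by microscopy, with normalized cluster intensities fitted with a binding model.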

“GCCGUAGAUUGAAGGAGCGGUUCAUCAAUUCAAGUCGAGUGAUGUUCGACGAUUCUCAGUAACCAGGUAGGUCGCAAUCUACGGC” and “GGAGCCGAUAGUGAUACCAGCCAGUGAUGUUGGCGAAGUCUCAUUUUCGCUCUCGGUAAGGGCCCUUGGCAGCACUUACUCGGAA [Arledied]” are within 1.5-fold of each other in “apparent KD of K4 kissing-loop reporter” value: 150 nM for the first, 102 nM for the second.

Going from “CAUGAGUGAUGUUCGUGCGCUUGGUCGAAGCGAGGACCGGUACGGCCGCCACUCGCUAUGGCGGCAUCUACCAGUGAUGUUGGUG [Same State Tryptophan A GF 2]” to “UGACUGGACUGAAGGAGCGCUGAACUCCUAGUGAUGUUAGGAAAACGAGACAAAGUCUCGCGGCAGGUAGGUCGCAGUCUAGUCU”, the “apparent KD of K4 kissing-loop reporter” value falls from 228 nM to 108 nM (2.1-fold).

Compared with “AAGCGUAAAAUGGCGGACAUACUGCUCCCACGAGGACCGGUACGGCCGCCACUCGAGUGCGGCAGUGAUGUUGCCGCCUUAGCGU [KL-XTryp-A20]”, “UUAGAUCUUCUAGAUACCAGUCUGUGUAUCAAUGAUACACUUGACUGAGUGAUGUUCAGAGGCCCUUGGCAGCUAGAAGAUCAUU [AK1 SS Theophylline B]” is 7.9-fold higher in “apparent KD of K4 kissing-loop reporter” value: 92 nM for the first, 727 nM for the second.

Going from “CUGACUCAAUAGUCAGUGAUGUUGACUGGACGAGGACCGGUACGGCCGCCACUCGAGAGUGGUGUAAAAUAUGUCACAGAGUCAG [Tryp A SS t3b]” to “GAUAUAUAUAGAGGAUAUAGCAGGUGAUACAAGAAAGUGAGUGAUGUUUAUGUAGAUGAUGAUAUGUUAGAAGGCUAUAUAUAUC [radioactive7-modED1598]”, the “apparent KD of K4 kissing-loop reporter” value rises from 208 nM to 766 nM (3.7-fold).

First: UAUGAAGGUGGAGGAUAUUGAUUGAGCCUUGGUCAGGAGUGAUGUUCCGGGAAGCCUUGGGUUCAUCGAGAAGGCCAAGGAUAGU [#09 K4 FMN B Same State]
Second: UGACUGGACUGAAGGAGCGCGCGAGACAAAGUCUCGAACUCUUAGUGAUGUUAAGAAAUAACGCAGGUAGGUCGCAGUCUAGUCU
The “apparent KD of K4 kissing-loop reporter” value of the first is 1.5-fold higher: 221 nM for the first, 147 nM for the second.

Going from “AAAGAGUCACUCGAAGCCAUCGAAGAUGGGCGAGGACCGGUACGGCCGCCACUCGGAGUGAUGUUCCGAAGACUGUAAAAUAAAA [MatMod 11 - Jieux - Exclusion - Tryptophan A]” to “CCGAUACAUUAUUCUACGGCCGAGAGUGAUACCAGCCGUAUUUGUGGCCCUUGGCAGCGCAGAUGCAGUGAUGUUGCAUACUUGU [Same State Theophylline A GF 20]”, the “apparent KD of K4 kissing-loop reporter” value falls from 451 nM to 78.1 nM (5.8-fold).

Going from “UUAAUAUUGUCGGCCGCCACUGGAUAGUAAUUUGUAUAAUCUAUUUCAAAGUGAUGUUUUGAGUCCAGGACCGGGACAUUUGAUA [JR_Nu_ExcTryptoB_Sub030]” to “UUUGAAAUGUCUGAUACCAGAGAAAAUAUAUGUAGUGAUGUUAUAUACAAAUUUAAUAAGCUCCCUUGGCAGCAGUAUGAAUUUU [AstrosExc-TheB#14]”, the “apparent KD of K4 kissing-loop reporter” value rises from 455 nM to 796 nM (1.7-fold).

“UGUGAUGUGUAGUGUUAUGUUUUGCGGGAUACCAGAGUCUUUUUAUUCCCUUGGCAGCUUGAGUGAUGUUUGAUGCUGUUCUUGU [cxxdmullin]” and “CGCAGUGAUGUUGCUAUAUUUCUUGAUUAACGAGGACCGGUACGGCCGCCACUCGAUUUCUCUCUAAUCCACUAUGUUGUUUAGA [JR_SSTryptoA_Sub002]” are within 1.5-fold of each other in “apparent KD of K4 kissing-loop reporter” value: 439 nM for the first, 506 nM for the second.

Compared with “AGACUAUCGUCAAAGACGGUAGUCAAAAGUGAGGAUAUAGUGAUGUUUAGAAGGCACUAAGACUGUAUCGAAUAGAUACGGUCAA [FmnA 1 #K4BetweenAptamer #OpenEnded]”, “AAUAAUCUAGGUGAUACCAGCUCAACAUGAGUGAUGUUCAUGAACUAAUGUAGAGUUGAGAGCCCUUGGCAGCACCUAGAUAAUA [KL-SSTheoB6]” is 2.2-fold lower in “apparent KD of K4 kissing-loop reporter” value: 2120 nM for the first, 966 nM for the second.

Compared with “CCGCCAUCAUCAGAUACCAGACUGAUGGCGGUAACCGCCAAGCGAGUGAUGUUCGCAUCAGUCCCUUGGCAGCUGAUGAAGACUG [Theo B SS t4]”, “GGAUGGUAGGCGGCCGCCACUAAAACUGAACACAUACAAGCCAGUGAUGUUGGUAUGAUGGAGUAUAGGACCGGGCCUAGAUAGA [Exclusion - Tryptophan B (Freestyle 4)]” is 4.3-fold higher in “apparent KD of K4 kissing-loop reporter” value: 110 nM for the first, 472 nM for the second.

Compared with “UGUGUUGUUGUGAUGUUUGGUGUUGUAGGGCAGGAUAUCGUAGAGGCGAGAAGGGCUUGUGGGCGGUAUGAGUGAUGUUUGUAGG [cfiuxmullin]”, “UGCAGUGAUGUUGCGAGUGGCAGAUACGAAGGAGCGUGGUGAGACACAGGUAGGUCGCGUAUUGAAAUUGCUGUCACUAAAAUGC [#7]” is 4.1-fold higher in “apparent KD of K4 kissing-loop reporter” value: 124 nM for the first, 505 nM for the second.

Same assay, conditions: Eterna round: R107; input ligand: theophylline 20 uM

First: AGCGCUGCCUGAGGAUAUAGAGACGAGUGAUGUUCGUGGAUUGAUACCAGUGAUGUUGGUCUAUUUCUAGAAGGCAGGCGAUCGU [Exclusion FMN B GF 3]
Second: UAGGGCAUCGCAGGAUAUCCUGCUUAACGUUGGAUUCCAGUGAUGUUGGAAAGUCGGCCUAGGGUAGGAGAAGGGCGAACUUGAA [Maxean]
The “apparent KD of K4 kissing-loop reporter” value of the first is 1.9-fold lower: 105 nM for the first, 195 nM for the second.

“AUGUAUGAAUUAGGAUAUCGUGAGCCAUGCAUAUAUAUGAUAAAUGGAUAUGUCGUAGUGAUGUUACGAGAAGGAGUGUGGAGUA [KL-XFMN-B2]” and “AGGGACUCUUCGGAGUCCCGGUCAAGGGAUACCAGUGAUGUUGGUCACCCUUGGCAGCCCAGAAACCAAGCCACCAAAGGUGGCA [Omei KL Theo A Exc A v3]” are within 1.5-fold of each other in “apparent KD of K4 kissing-loop reporter” value: 90 nM for the first, 103 nM for the second.

Compared with “AGCCGAAAGGCGAGUGCUGUCACUCCGGAAGGAGCGCUCAAAAGAGCAGGUAGGUCGCCGGAGUGAUGUUCCGGUGCAGCACUCA [Omei KL Arginine A Exc B v4]”, “CCCUCACGAGUGAUGUUCGUAGGGUACAGUCAGGAUAUCAUGCGGUUGAGAAGGGACAGAGAGGGCGGCCACGGGUUGCUCCUCU [Lariusteza]” is 2.2-fold lower in “apparent KD of K4 kissing-loop reporter” value: 751 nM for the first, 345 nM for the second.

“AUGUGGAGCGACGUUUCGGGAUAUCGGGAAGGAGCGCUGAUAACGGCAGGUAGGUCGCCUGGUCCAGUGAUGUUGGGCAUGCAUU [Exclusion Arg A GF 24]” and “CGACGCCGGUCGGCCGCCACUCACAGCAGCCAGUGAUGUUGGAUUGUAGCGGAGUGAUGUUUCGCGAGGACCGGGACUGCAGUCG [Same State Tryptophan B GF 12]” are within 1.5-fold of each other in “apparent KD of K4 kissing-loop reporter” value: 185 nM for the first, 130 nM for the second.

Going from “GGCAGUGAUGUUGCCUUCGCAAUGCAUGCAGAGGAUAUUCGUUUGGGAAGAAGGCUGCAGCGUUCUCUCGAGUGAUGUUCGGGUG [Same State FMN A GF 19]” to “UUGCCUUUGAGCGAUACCAGCAGCGUCGGCCUUAGAUUGGGAGGCAUGGCAAGUGAUGUUUGCCCUUGGCAGCGCGUAUAGUACA [theeternabot_exclusion_KL_Theo_B_7]”, the “apparent KD of K4 kissing-loop reporter” value rises from 181 nM to 439 nM (2.4-fold).

First: GCCUAGCAGGGAAGGAGCGCCAUAAGAAGUAAAGGAGGGAGUUGAGUGAUGUUCAAAAUGUGGCAGGUAGGUCGCCCUGCUAGGC [KL-SSArg B13]
Second: UGUCAUUGGUCUGAUACCAGUCCCUUGGCAGCCUAAAGGAGUGAUGUUCCAAGGAUACCAGACCCUUGGCAGCAGACCGAUGACU [TheoBS 28 #DoubleAptamer #SwitchBubble]
The “apparent KD of K4 kissing-loop reporter” value of the first is 1.9-fold higher: 490 nM for the first, 260 nM for the second.

First: AAGAGCCUCAAGAGGCAGUAUCUGCCUCAACGAGGACCGGUACGGCCGCCACUCGAAUAAUAGAGUGAUGUUCUAAGAGGCUCAA [AK8 SS Tryptophan A]
Second: UUUCGCUUCGUCUGAUAUAAUUGGCCAGAAGGAGCGGUAGAAUUACCAGGUAGGUCGCUGGCCCAGUGAUGUUGGGACUAGCGUG [Isrianve]
The “apparent KD of K4 kissing-loop reporter” value of the first is 5.1-fold higher: 548 nM for the first, 107 nM for the second.

First: UGAUACCAGACGGCCGCCACUACACCAGUCAAAGACUGGAUGUGAUGUUCGACCAGUGAUGUUGGUAGGACCGGGUCUGGUAUCU [TrypBX 7 #Palindromic #SwitchBubble #StaticStem]
Second: UUUGGAAGCGGUGUUGAUUAGGGAGCGGAAGGAGCGCCGAGGAGGGCAGGUAGGUCGCCGGAAUGUAGUGAUGUUGCAUAGAGGU [ExArgA.Aa]
The “apparent KD of K4 kissing-loop reporter” value of the first is 4.8-fold lower: 109 nM for the first, 526 nM for the second.

First: UGACUGGACUGAAGGAGCGCUAAACUCCUAGUGAUGUUAGGGAAACGAGACAAAGUCUCGAGGCAGGUAGGUCGCAGUCUAGUCU [FiskerMod 1 - Jieux - Same State - Arginine B]
Second: CUAUCUUAAGAAGGAUAUUAUGUAACAAACGCAGGCGUAUUAGAAUCAGUGAUGUUGAAAUAGGUUUAAGAAGGUCUUAAAGAAA [theeternabot_sameState_KL_FMN_B_31]
The “apparent KD of K4 kissing-loop reporter” value of the first is 2.3-fold lower: 265 nM for the first, 608 nM for the second.

Compared with “ACCAAUUUACCGGCAGUAGUGAUGUUACUCCGAGGACCGGUACGGCCGCCACUCGCGAACGUAGGGUUUCUGACUCGAAGAGUCU”, “GGCAGUGAUGUUGCCAGUGGCAGAUGUGAAGGAGCGCGGUGAGACGCAGGUAGGUCGCACAUUGAAAUUGCUGUCACUAAAAUGC [#02 K4 Arginine A Exclusion]” is 2.1-fold higher in “apparent KD of K4 kissing-loop reporter” value: 149 nM for the first, 314 nM for the second.

“AGGCGGCAUAAUUGACUGAAAAGAAAUUAACGAGGACCGGUACGGCCGCCACUCGAACACCAGUGAUGUUGGUAUGGGAUAAUUU [Exclusion Tryptophan A GF 18]” and “GCCGUAGAUUGAAGGAGCGGUUCAUCAAUUCAAGUCGAGUGAUGUUCGACGAUUCUCAGUAACCAGGUAGGUCGCAAUCUACGGC” are within 1.5-fold of each other in “apparent KD of K4 kissing-loop reporter” value: 169 nM for the first, 171 nM for the second.

Going from “GGAGCCGAUAGUGAUACCAGCCAGUGAUGUUGGCGAAGUCUCAUUUUCGCUCUCGGUAAGGGCCCUUGGCAGCACUUACUCGGAA [Arledied]” to “CAUGAGUGAUGUUCGUGCGCUUGGUCGAAGCGAGGACCGGUACGGCCGCCACUCGCUAUGGCGGCAUCUACCAGUGAUGUUGGUG [Same State Tryptophan A GF 2]”, the “apparent KD of K4 kissing-loop reporter” value rises from 95.9 nM to 202 nM (2.1-fold).

“UGACUGGACUGAAGGAGCGCUGAACUCCUAGUGAUGUUAGGAAAACGAGACAAAGUCUCGCGGCAGGUAGGUCGCAGUCUAGUCU” and “AAGCGUAAAAUGGCGGACAUACUGCUCCCACGAGGACCGGUACGGCCGCCACUCGAGUGCGGCAGUGAUGUUGCCGCCUUAGCGU [KL-XTryp-A20]” are within 1.5-fold of each other in “apparent KD of K4 kissing-loop reporter” value: 111 nM for the first, 80.3 nM for the second.

Going from “UUAGAUCUUCUAGAUACCAGUCUGUGUAUCAAUGAUACACUUGACUGAGUGAUGUUCAGAGGCCCUUGGCAGCUAGAAGAUCAUU [AK1 SS Theophylline B]” to “CUGACUCAAUAGUCAGUGAUGUUGACUGGACGAGGACCGGUACGGCCGCCACUCGAGAGUGGUGUAAAAUAUGUCACAGAGUCAG [Tryp A SS t3b]”, the “apparent KD of K4 kissing-loop reporter” value falls from 849 nM to 182 nM (4.7-fold).

Compared with “GAUAUAUAUAGAGGAUAUAGCAGGUGAUACAAGAAAGUGAGUGAUGUUUAUGUAGAUGAUGAUAUGUUAGAAGGCUAUAUAUAUC [radioactive7-modED1598]”, “UAUGAAGGUGGAGGAUAUUGAUUGAGCCUUGGUCAGGAGUGAUGUUCCGGGAAGCCUUGGGUUCAUCGAGAAGGCCAAGGAUAGU [#09 K4 FMN B Same State]” is 2.6-fold lower in “apparent KD of K4 kissing-loop reporter” value: 723 nM for the first, 274 nM for the second.

Compared with “UGACUGGACUGAAGGAGCGCGCGAGACAAAGUCUCGAACUCUUAGUGAUGUUAAGAAAUAACGCAGGUAGGUCGCAGUCUAGUCU”, “AAAGAGUCACUCGAAGCCAUCGAAGAUGGGCGAGGACCGGUACGGCCGCCACUCGGAGUGAUGUUCCGAAGACUGUAAAAUAAAA [MatMod 11 - Jieux - Exclusion - Tryptophan A]” is 2.7-fold higher in “apparent KD of K4 kissing-loop reporter” value: 133 nM for the first, 362 nM for the second.
